Molecular target: α4β7 integrin receptor on RPMI8866 cells (human (endogenous in RPMI8866)) (UniProt P13612)
Sequence (P13612 34-1032, chain 1 of 2): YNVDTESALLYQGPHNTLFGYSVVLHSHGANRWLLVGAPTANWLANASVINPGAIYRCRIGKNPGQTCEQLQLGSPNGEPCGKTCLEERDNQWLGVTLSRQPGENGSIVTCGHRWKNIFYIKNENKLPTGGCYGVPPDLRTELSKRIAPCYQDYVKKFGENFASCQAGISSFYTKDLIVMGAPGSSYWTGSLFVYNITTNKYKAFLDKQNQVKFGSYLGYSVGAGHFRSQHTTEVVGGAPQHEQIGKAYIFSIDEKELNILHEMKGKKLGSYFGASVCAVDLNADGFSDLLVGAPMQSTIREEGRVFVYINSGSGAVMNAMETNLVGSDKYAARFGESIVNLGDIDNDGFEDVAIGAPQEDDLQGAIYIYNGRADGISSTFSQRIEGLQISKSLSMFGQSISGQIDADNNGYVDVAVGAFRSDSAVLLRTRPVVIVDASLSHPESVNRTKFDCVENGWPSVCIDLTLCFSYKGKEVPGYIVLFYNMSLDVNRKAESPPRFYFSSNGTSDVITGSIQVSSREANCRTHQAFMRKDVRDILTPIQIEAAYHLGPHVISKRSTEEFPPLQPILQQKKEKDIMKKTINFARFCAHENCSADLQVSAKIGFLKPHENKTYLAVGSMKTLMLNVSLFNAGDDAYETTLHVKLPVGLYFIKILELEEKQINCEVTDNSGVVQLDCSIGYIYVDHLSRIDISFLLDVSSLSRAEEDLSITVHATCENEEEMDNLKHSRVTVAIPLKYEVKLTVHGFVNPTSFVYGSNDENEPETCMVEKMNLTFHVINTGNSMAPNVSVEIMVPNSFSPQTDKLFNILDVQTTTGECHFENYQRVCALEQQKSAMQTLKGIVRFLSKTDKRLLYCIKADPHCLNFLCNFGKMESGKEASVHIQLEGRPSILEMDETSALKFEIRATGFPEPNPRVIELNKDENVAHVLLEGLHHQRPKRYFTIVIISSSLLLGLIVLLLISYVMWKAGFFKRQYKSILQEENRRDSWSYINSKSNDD
Sequence (P26010 20-798, chain 2 of 2, further chain): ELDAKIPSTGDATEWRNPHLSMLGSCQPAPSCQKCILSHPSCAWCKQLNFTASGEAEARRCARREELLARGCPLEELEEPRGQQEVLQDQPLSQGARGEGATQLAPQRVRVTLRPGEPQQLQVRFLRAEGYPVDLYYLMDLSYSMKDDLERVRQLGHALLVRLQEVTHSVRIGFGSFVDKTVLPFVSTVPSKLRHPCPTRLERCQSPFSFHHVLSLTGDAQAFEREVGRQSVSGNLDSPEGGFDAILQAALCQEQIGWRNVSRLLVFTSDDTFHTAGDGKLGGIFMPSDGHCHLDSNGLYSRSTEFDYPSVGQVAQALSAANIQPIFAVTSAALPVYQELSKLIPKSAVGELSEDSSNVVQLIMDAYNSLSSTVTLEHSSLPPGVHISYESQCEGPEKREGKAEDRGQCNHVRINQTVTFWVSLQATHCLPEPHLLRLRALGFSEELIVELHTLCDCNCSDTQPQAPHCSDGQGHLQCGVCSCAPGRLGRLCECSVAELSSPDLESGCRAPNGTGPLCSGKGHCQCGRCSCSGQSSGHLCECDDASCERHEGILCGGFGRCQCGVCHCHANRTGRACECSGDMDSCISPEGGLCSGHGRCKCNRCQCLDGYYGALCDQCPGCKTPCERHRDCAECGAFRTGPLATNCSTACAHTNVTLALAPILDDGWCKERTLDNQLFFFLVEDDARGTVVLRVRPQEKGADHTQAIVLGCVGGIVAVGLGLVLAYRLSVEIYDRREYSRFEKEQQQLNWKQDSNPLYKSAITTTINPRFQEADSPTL

For “HIV-1 envelope protein on 92TH023 virions (primary virus, subtype CRF01_AE) (natural protein)”, the % inhibition of α4β7 binding to MAdCAM-1 at p24 0.75–3 ng/well was 25 to 35%.
